Experiment in all cases: cell binding
The target in test [1] is T1, human MAdCAM expressed on cells (human, UniProt Q13477 19-382).
T1 construct: whole, on cells; also called MADCAM1
T1 sequence (looked up): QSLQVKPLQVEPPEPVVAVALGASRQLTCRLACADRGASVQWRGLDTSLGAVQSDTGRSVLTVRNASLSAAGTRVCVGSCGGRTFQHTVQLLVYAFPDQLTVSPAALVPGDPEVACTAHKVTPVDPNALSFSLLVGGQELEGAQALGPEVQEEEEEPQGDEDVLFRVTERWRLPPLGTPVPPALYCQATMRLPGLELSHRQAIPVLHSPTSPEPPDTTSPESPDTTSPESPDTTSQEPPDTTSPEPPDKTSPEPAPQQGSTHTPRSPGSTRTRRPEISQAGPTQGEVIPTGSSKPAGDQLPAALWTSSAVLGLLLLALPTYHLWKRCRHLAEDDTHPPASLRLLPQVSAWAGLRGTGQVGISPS

The target of test [2] is T2, mouse MAdCAM expressed on cells (mouse, UniProt Q61826 22-405).
T2 construct: whole, on cells
T2 sequence (looked up): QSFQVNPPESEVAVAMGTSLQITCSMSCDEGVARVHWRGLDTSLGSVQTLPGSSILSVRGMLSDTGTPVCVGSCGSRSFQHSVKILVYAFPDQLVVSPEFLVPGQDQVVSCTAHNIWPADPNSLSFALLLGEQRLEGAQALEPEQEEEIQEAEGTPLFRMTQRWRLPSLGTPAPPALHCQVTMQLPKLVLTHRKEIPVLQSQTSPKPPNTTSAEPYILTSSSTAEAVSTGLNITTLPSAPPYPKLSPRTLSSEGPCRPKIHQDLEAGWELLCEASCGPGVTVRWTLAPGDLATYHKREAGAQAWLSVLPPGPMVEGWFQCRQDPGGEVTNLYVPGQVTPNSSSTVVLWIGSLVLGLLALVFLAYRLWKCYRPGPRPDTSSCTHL

The target in test [3] is T2, mouse MAdCAM expressed on cells. The source holds these as a separate data set.
For test [4], the target named is T1, human MAdCAM expressed on cells. This is another data set of the same source.

Where a chain is given by its changes, count along the chain named. Read-outs that look alike come from different tables or passages of the source.

B1: MAdCAM Antibody Table 2 Clone 79 (antibody, human IgG1, V domains shown)
VH: EVQLLESGGGLVKPGGSLRLSCAASGFTFDDYAMHWVRQAPGKGLEWVASITSSSAFIDYAASVKGRFTISRDDSKNTLYLQMNSLKTEDTAVYYCARERVDWNSYFDLWGRGTLVTVSS
VL: EIVMTQSPATLSVSPGERATLSCRASQGISNSYLAWYQQKPGQAPRLLIYGASTRATGIPARFSGSGSGTEFTLTISSLQSEDFAVYYCQQYYTYPPTFGPGTKVDIK
Turning to B1, the binding result in test [1] and in test [2] was “binds” each time.

B2: MAdCAM Antibody Table 2 Clone 83 (antibody, human IgG1, V domains shown)
VH: EVQLLESGGGLVQPGGSLRLSCAASGFTFSSYWMHWVRQAPGKGLEWVAAISYDGKYKDYEDSVKGRFTISRDNSKNTLYLQMNSLRAEDTAVYYCARENKQWLASFDYWGQGTLVTVSS
VL: DIQMTQSPSSLSASVGDRVTITCQASQDISNFVNWYQQKPGKAPKLLIYAANLRSGVPSRFSGSGSGTDFTLTISSLQPEDFATYYCQQANSFPVTFGPGTKVDIK
Turning to B2, the binding result in test [1] and in test [2] was “binds” throughout.

B3: MAdCAM Antibody Table 2 Clone 73 (antibody, human IgG1, V domains shown)
VH: QVQLVQSGAEVKKPGASVKVSCKASGYTFTSNYVHWVRQAPGQGLEWMGRINPHSGDTSYAQKFQGRVTMTRDTSTSTVYMELSSLRSEDTAVYYCARAGQLWSDWYFDLWGRGTLVTVSS
VL: DIQMTQSPSSLSASVGDRVTITCQASQDIRNYLNWYQQKPGKAPKLLIYAATALRTGVPSRFSGSGSGTDFTLTISSLQPEDFATYYCQQSYSHPLTFGQGTKVEIK
Consider B3, for which the binding result in test [1] is reported as “binds”; in test [2] it was “no binding”.

B4: MAdCAM Antibody Table 2 Clone 80 (antibody, human IgG1, V domains shown)
VH: EVQLLESGGGLVQPGGSLRLSCAASGFTFDDYAMHWVRQAPGKGLEWVSAISGSGGSTYYADSVKGRFTISRDNSKNTLYLQMNSLRAEDTAVYYCAKDLGVVVPAALDYWGQGTTVTVSS
VL: B3 VL with R30S, Y32H, A50D, T52S, A53N, R55E, T56A, H94T, Q100G
As for B4, the binding result is on record as “binds” in test [1] and “no binding” in test [2].

B5: MAdCAM Antibody Table 2 Clone 81 (antibody, human IgG1, V domains shown)
VH: EVQLLESGGGLVKPGGSLRLSCAASGFAFSSHWMHWVRQAPGKGLEWVAGTSGSGESRDYADFVKGRFTISRDDSKNTLYLQMNSLKTEDTAVYYCARETYYYYYMDVWGKGTTVTVSS
VL: DIQMTQSPSSLSASVGDRVTITCRASQGISNYLAWYQQKPGKAPKLLIYDAANLEGGVPSRFSGSGSGTDFTLTISSLQPEDFATYYCQQSDIFPPTFGQGTKVEIK
For the molecule B5, the binding result in test [1] and in test [2] was “binds” throughout.

B6: MAdCAM Antibody Table 1 Clone 25 (scFv)
scFv: QVQLVQSGAEVKKPGASVKVSCKASGYTLTTWYMYWVRQAPGQGLEWMGWINPNRGATNYAQKFQGRVTMTRDTSTSTVYMELSSLRSEDTAVYYCAKGDLWGAMDVWGQGTLVTVSSGGGGSGGGGSGGGGSGGGGSDIQMTQSPSSLSASVGDRVTITCRASDNIGSWLAWYQQKPGKAPKLLIYAASSLQSGVPSRFSGSGSGTDFTLTISSLQPEDFATYYCQQGYSTPPTFGQGTKVEIK
As to B6, the binding result in test [3] is on record as “no binding”.

B7: MAdCAM Antibody Table 1 Clone 30 (scFv)
scFv: B6 scFv
Consider B7, for which the binding result in test [3] was “no binding”.

B8: MAdCAM Antibody Table 1 Clone 8 (scFv)
scFv: EVQLLESGGGLVQPGGSLRLSCAASGFMFGDYAMHWVRQAPGKGLEWVSAISGSGGSTYYADSVKGRFTISRDNSKNTLYLQMNSLRAEDTAVYYCAKDLVVAGIWYFDLWGRGTLVTVSSGGGGSGGGGSGGGGSGGGGSDIQMTQSPSSLSASVGDRVTITCRASQGISNNLNWYQQKPGKAPKLLIYDASSLESGVPSRFSGSGSGTDFTLTISSLQPEDFATYYCQQTHSFPSTFGQGTKLEIK
As for B8, in test [3], the binding result is reported as “no binding”.

B9: MAdCAM Antibody Table 2 Clone 76 (antibody, human IgG1, V domains shown)
VH: EVQLLESGGGLVQPGGSLRLSCAASGFTFDDYTMHWVRQAPGKGLEWVSDISGSGGSTYYADSVKGRFTISRDNSKNTLYLQMNSLRAEDTAVYYCAKDVVVAGTPLHFDYWGQGTLVTVSS
VL: DIQMTQSPSSLSASVGDRVTITCQASQDISNYLNWYQQKPGKAPKLLIYAASYLQSGVPSRFSGSGSGTDFTLTISSLQPEDFATYYCQQAHNYPITFGQGTRLEIK
Consider B9, for which the binding result in test [1] and in test [2] was “binds” in each case.

B10: MAdCAM Antibody Table 2 Clone 84 (antibody, human IgG1, V domains shown)
VH: QVQLVQSGAEVKKPGASVKVSCKASGGTFSSSAISWVRQAPGQGLEWMGWISAYNGYTNYAQKFQGRVTMTRDTSTSTVYMELSSLRSEDTAVYYCASRVHSGGSYPDDYWGQGTLVTVSS
VL: B9 VL with Q27E, D28H, S30Y, Y53S, A91T, H92D, N93S, Y94I, R103K, L104V
Consider B10, for which the binding result in test [1] and in test [2] was “binds” in each case.

B11: MAdCAM Antibody Table 1 Clone 13 (scFv)
scFv: EVQLLESGGGLVQPGGSLRLSCAASGFTFDDYAMHWVRQAPGKGLEWVSYIDASGTTIYYADSVKGRFTISRDNSKNTLYLQMNSLRAEDTAVYYCAKDQAAAGYWYFDLWGRGTLVTVSSGGGGSGGGGSGGGGSGGGGSDIQMTQSPSSLSASVGDRVTITCQASQDISNYLNWYQQKPGKAPKLLIYKASTLESGVPSRFSGSGSGTDFTLTISSLQPEDFATYYCQQSYSTPITFGQGTRLEIK
With B11, the binding result in test [4] was “binds”; in test [3], “no binding”.

B12: MAdCAM Antibody Table 2 Clone 78 (antibody, V domains shown)
VH: QVQLVQSGAEVKKPGSSVKVSCKASGGTFSSYAISWVRQAPGQGLEWMGWMEPHTGNTRYAQKFQGRVTITADESTSTAYMELSSLRSEDTAVYYCAKGGFSWFDPWGQGTLVTVSS
VL: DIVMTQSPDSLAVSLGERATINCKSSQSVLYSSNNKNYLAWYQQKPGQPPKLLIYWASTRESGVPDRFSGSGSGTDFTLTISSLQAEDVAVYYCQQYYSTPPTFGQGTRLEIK
B12: the binding result in test [1] and in test [2] was “binds” throughout.

B13: MAdCAM Antibody Table 2 Clone 75 (antibody, human IgG1, V domains shown)
VH: EVQLLESGGGLVQPGGSLRLSCAASGFTFSDFWMHWVRQAPGKGLEWISYISGDSGYTNYADSVKGRFTISRDNSKNTLYLQMNSLRAEDTAVYYCARDRPYYYYMDVWGKGTTVTVSS
VL: DIQMTQSPSSLSASVGDRVTITCRASQSVSRSLAWYQQKPGKAPKLLIYAASSLQSGVPSRFSGSGSGTDFTLTISSLQPEDFATYYCQQYKSYPVTFGQGTKVEIK
As for B13, the binding result in test [1] and in test [2] was “binds” throughout.

B14: MAdCAM Antibody Table 2 Clone 82 (antibody, human IgG1, V domains shown)
VH: QVQLVQSGAEVKKPGASVKVSCKASGYTFTRHWIHWVRQAPGQGLEWMGWINVKTGGAGYAQKFQGRVTMTRDTSTSTVYMELSSLRSEDTAVYYCARESSGWYGTDVWGQGTTVTVSS
VL: B13 VL with V19A, V29I, R31N, S32Y, Y91S, K92N, Y94F, V96L, Q100G
In the case of B14, the binding result in test [1] and in test [2] was “binds” each time.

B15: MAdCAM Antibody Table 2 Clone 77 (antibody, human IgG1, V domains shown)
VH: EVQLLESGGGLVQPGGSLRLSCAASEFTFSNAWMSWVRQAPGKGLEWVASISSTSAYIDYADSVKGRFTISRDNSKNTLYLQMNSLRAEDTAVYYCAREVVGATTFDYWGQGTLVTVSS
VL: B9 VL with Q24R, D28S, N31T, Y32W, N34A, Y53S, H92N, N93A, Y94F, I96P
As for B15, the binding result in test [1] and in test [2] was “binds” in each case.

B16: MAdCAM Antibody Table 1 Clone 12 (scFv)
scFv: QVQLVQSGAEVKKPGASVKVSCKASGYTFTGYYMHWVRQAPGQGLEWMGWIGPNSGDTNYAQKFQGRVTMTRDTSTSTVYMELSSLRSEDTAVYYCARDLDHNWYFDLWGRGTLVTVSSGGGGSGGGGSGGGGSGGGGSDIVMTQSPLSLPVTPGEPASISCRSSQSLLHSNGYNYLDWYLQKPGQSPQLLIYSSSNRAPGVPDRFSGSGSGTDFTLKISRVEAEDVGVYYCMQALHIPLTFGGGTKVEIK
Regarding B16, the binding result in test [4] is recorded as “binds”; in test [3], “no binding”.

B17: MAdCAM Antibody Table 1 Clone 1 (scFv)
scFv: EVQLLESGGGLVQPGGSLRLSCAASGFTFSSYGMHWVRQAPGKGLEWVAVISDDGSDKYYADSVKGRFTISRDNSKNTLYLQMNSLRAEDTAVYYCTTSKYYYYYGMDVWGQGTTVTVSSGGGGSGGGGSGGGGSGGGGSDIQMTQSPSSLSASVGDRVTITCQASQDISKSLNWYQQKPGKAPKLLIYAASSLQSGVPSRFSGSGSGTDFTLTISSLQPEDFATYYCQQGYSTPLTFGGGTKVEIK
As to B17, the binding result in test [4] is “binds”.

Values taken from patent US20210206856A1 (PANDION OPERATIONS, published 2021).
